Source: the supplement of paper PMC10065799, “High-throughput profiling of sequence recognition by tyrosine kinases and SH2 domains using bacterial peptide display” (eLife, 2023)

What was measured:
[1] = tested on: AncSZ; assay: phosphorylation enrichment, bacterial display (enrichment ratio); higher = better substrate or ligand; peptides without Tyr show the background
[2] = target: EPHB1 (UniProt P54762); assay: as above
[3] = target: EPHB2 (UniProt P29323); assay: as above
[4] = target: FGFR1 (UniProt P11362); assay: as above
Chain of FGFR1 (P11362 whole entry, looked up): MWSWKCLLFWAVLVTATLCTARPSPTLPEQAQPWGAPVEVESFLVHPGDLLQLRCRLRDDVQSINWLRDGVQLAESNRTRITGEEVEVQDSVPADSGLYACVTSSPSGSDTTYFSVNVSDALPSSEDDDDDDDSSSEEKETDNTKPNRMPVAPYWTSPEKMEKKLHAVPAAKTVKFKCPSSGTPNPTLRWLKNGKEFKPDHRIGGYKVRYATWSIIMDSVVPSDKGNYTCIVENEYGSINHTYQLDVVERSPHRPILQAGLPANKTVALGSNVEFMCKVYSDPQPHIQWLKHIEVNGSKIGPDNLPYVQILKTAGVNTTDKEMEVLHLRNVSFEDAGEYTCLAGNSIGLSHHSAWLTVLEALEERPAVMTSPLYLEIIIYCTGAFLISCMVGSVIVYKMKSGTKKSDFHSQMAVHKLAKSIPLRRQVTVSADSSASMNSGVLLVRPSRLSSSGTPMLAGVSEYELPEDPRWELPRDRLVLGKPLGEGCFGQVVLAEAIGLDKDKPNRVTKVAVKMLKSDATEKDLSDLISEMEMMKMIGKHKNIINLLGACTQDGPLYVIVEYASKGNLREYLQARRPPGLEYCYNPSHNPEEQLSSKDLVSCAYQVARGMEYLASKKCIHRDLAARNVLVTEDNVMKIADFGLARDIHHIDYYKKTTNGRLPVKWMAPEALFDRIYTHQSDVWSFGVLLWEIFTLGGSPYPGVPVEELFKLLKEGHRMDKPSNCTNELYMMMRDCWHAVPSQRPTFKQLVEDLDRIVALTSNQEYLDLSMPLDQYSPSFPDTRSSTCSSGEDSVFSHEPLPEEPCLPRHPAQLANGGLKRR

[5] = target: FGFR3 (UniProt P22607); assay: as above
[6] = tested on: Fer (mouse); assay: as above
[7] = target: Fes (UniProt P07332); assay: as above
Chain of Fes (P07332 whole entry, looked up): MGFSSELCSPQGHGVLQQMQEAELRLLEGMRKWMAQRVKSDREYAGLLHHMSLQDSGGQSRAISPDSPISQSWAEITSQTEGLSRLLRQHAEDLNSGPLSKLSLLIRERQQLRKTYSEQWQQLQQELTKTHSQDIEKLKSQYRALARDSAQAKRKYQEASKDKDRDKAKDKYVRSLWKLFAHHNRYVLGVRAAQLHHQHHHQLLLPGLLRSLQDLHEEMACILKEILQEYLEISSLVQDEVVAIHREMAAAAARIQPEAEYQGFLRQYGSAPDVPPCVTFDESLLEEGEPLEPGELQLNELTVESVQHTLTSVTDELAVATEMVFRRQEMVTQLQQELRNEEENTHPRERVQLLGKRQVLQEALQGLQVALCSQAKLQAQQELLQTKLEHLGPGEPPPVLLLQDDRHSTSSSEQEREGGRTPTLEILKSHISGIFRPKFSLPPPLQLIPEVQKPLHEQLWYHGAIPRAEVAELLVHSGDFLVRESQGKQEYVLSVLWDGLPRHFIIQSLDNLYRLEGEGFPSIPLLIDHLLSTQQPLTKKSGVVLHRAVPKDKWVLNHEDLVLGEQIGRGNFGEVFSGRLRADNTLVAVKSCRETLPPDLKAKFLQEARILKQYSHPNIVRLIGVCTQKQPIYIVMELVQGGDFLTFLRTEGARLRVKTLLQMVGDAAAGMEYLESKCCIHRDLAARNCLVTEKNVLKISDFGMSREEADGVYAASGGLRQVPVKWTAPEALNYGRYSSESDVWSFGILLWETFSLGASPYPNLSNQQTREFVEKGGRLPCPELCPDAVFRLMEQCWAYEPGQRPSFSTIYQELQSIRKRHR

[8] = target: Fyn (UniProt P06241); assay: as above
Chain of Fyn (P06241 whole entry, looked up): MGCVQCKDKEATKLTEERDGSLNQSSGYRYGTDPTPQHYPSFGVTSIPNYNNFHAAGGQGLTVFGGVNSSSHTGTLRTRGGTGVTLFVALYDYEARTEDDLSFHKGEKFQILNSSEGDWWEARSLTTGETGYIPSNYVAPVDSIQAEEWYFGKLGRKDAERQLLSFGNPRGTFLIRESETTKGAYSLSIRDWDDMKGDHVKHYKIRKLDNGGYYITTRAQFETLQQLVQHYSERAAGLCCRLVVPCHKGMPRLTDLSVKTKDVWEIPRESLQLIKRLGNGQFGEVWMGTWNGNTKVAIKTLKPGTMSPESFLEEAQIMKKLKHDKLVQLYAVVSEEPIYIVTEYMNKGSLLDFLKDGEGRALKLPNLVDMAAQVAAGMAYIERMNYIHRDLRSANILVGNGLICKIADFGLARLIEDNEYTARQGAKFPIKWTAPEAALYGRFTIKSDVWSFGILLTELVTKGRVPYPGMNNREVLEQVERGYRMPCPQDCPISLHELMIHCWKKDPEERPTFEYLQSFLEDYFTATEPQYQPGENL

[9] = target: Hck (UniProt P08631); assay: as above
Chain of Hck (P08631 whole entry, looked up): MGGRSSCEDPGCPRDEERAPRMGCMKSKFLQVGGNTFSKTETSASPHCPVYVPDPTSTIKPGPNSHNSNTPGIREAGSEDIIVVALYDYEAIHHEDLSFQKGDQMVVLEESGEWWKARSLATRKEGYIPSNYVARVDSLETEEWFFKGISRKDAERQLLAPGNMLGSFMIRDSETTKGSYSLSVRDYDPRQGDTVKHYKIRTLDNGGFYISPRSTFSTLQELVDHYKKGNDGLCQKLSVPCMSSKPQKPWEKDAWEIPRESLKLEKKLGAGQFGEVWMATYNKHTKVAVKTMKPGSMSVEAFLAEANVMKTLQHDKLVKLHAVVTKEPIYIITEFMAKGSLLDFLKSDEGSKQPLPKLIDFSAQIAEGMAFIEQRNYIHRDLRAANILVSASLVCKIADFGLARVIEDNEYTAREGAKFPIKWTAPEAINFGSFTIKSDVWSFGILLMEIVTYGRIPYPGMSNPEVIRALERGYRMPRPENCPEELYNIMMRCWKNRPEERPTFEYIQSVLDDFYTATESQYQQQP

[10] = target: Jak2 (UniProt O60674); assay: as above
[11] = target: MERTK (UniProt Q12866); assay: as above
[12] = tested on: c-Abl (mouse); assay: as above
[13] = tested on: c-Src; assay: as above
[14] = target: Grb2 SH2 (UniProt P62993); assay: SH2 binding enrichment of the phosphorylated peptide, bacterial display (enrichment ratio); higher = better substrate or ligand; peptides without Tyr show the background
[15] = target: SHP2-C SH2; assay: as above
[16] = target: c-Src SH2; assay: as above
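Wherever SH2 binding enrichment of the phosphorylated peptide, bacterial display is given: peptide library displayed on the E. coli surface as eCPX fusions, selected cells deep-sequenced, score is each peptide's frequency after selection divided by its frequency in the input.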
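Wherever phosphorylation enrichment, bacterial display is given: 11-residue human phosphosite peptides and single-mutation variants displayed on the E. coli surface, counted by deep sequencing, each peptide's frequency after selection divided by its frequency in the unselected input library; frequency after pTyr selection over input frequency; kinase dosed for 20-30% of maximal phosphorylation in three min.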

Chain of EPHB1 (P54762 whole entry, looked up): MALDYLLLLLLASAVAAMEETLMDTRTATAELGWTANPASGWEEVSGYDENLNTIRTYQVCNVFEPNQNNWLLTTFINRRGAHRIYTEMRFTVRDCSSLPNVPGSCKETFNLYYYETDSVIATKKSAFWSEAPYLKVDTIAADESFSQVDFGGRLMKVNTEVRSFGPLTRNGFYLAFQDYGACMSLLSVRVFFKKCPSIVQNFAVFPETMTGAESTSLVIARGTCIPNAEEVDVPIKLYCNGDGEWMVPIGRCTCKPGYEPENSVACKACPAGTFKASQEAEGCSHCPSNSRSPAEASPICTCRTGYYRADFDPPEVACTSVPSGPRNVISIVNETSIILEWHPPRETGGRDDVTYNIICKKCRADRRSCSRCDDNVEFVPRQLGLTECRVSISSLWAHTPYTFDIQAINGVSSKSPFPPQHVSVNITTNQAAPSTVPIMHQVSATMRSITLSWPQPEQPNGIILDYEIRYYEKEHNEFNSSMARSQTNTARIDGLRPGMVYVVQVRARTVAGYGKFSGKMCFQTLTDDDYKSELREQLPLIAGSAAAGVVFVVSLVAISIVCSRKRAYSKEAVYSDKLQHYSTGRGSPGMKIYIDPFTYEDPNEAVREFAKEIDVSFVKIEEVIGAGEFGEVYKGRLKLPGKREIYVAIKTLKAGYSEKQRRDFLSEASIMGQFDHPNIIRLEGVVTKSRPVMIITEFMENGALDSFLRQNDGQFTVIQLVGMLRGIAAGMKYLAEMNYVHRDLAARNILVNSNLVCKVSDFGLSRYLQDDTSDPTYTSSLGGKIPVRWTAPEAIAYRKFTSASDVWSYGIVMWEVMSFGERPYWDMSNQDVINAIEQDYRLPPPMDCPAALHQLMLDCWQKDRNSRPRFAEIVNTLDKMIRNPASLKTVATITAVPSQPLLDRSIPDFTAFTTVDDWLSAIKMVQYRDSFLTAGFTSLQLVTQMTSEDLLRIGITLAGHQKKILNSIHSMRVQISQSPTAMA
Chain of EPHB2 (P29323 whole entry, looked up): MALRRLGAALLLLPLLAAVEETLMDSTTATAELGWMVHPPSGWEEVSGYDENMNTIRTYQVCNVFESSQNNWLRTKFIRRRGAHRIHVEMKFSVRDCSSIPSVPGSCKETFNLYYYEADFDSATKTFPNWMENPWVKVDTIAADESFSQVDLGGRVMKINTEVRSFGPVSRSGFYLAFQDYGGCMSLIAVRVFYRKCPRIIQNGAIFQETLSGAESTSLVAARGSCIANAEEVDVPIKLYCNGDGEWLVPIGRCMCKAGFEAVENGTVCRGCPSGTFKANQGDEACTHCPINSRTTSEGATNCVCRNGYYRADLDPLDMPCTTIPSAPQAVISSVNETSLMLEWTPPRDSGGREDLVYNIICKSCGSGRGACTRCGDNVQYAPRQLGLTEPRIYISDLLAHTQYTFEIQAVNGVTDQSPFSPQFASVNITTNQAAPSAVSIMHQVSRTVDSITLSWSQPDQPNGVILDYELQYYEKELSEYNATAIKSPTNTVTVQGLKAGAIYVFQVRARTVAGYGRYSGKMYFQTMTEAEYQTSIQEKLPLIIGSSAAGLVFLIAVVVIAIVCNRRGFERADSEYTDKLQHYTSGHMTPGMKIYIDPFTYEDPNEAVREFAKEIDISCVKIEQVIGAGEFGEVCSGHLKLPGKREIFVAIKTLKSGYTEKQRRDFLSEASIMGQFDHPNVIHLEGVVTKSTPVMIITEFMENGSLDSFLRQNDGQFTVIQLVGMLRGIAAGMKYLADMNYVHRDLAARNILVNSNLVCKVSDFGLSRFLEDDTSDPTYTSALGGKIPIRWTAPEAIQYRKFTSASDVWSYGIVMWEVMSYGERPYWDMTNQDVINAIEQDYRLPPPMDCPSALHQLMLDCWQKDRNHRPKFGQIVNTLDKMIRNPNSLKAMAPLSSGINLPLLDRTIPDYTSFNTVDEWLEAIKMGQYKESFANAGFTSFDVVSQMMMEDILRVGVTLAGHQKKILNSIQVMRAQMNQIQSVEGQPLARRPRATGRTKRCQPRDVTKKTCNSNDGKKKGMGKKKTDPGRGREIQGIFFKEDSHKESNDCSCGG

Row | SH2 binding enrichment [14] | SH2 binding enrichment [15] | SH2 binding enrichment [16] | Sequence | phosphorylation enrichment [1] | phosphorylation enrichment [2] | phosphorylation enrichment [3] | phosphorylation enrichment [4] | phosphorylation enrichment [5] | phosphorylation enrichment [6] | phosphorylation enrichment [7] | phosphorylation enrichment [8] | phosphorylation enrichment [9] | phosphorylation enrichment [10] | phosphorylation enrichment [11] | phosphorylation enrichment [12] | phosphorylation enrichment [13]
1 | 1 | 0.944 | 0.648 | IPGVEYLVSII [TNC_Y1775] | 1.02 | 0.667 | 0.574 | 0.552 | 0.723 | 0.445 | 1.14 | 0.432 | 0.491 | 1.19 | 0.409 | 0.664 | 0.5
2 | 0.793 | 0.538 | 0.777 | FSCLPYGRLAF [SLC52A2_Y305_YF] | 0.935 | 0.352 | 0.55 | 0.71 | 0.649 | 0.559 | 1.01 | 0.629 | 0.936 | 1.03 | 0.56 | 0.882 | 2.36
3 | 1.06 | 0.563 | 0.501 | SLGSPYGQPPR [PDLIM4_Y137] | 0.747 | 0.413 | 0.448 | 0.426 | 0.526 | 0.356 | 0.771 | 0.553 | 0.365 | 0.484 | 0.378 | 0.486 | 0.461
4 | 0.798 | 0.63 | 0.891 | STKELYEKYMI | 0.805 | 0.504 | 0.594 | 0.484 | 0.591 | 5.61 | 0.825 | 0.602 | 0.72 | 0.69 | 0.412 | 0.518 | 0.821
5 | 1.13 | 0.909 | 1.12 | KMTGRYEMYAR [UPB1_Y362] | 0.828 | 0.58 | 0.627 | 0.523 | 0.487 | 0.438 | 0.789 | 0.476 | 0.549 | 0.674 | 0.428 | 0.54 | 0.416
6 | 0.906 | 0.792 | 0.937 | YKRAVYCIIGR [NUP93_Y391] | 0.746 | 0.506 | 0.464 | 0.429 | 0.563 | 0.505 | 0.785 | 0.59 | 0.755 | 0.599 | 0.849 | 0.563 | 0.626
7 | 0.736 | 4.67 | 10.5 | KGSLPYSLILD [PKD1L2_Y406_N407S] | 1.08 | 0.822 | 0.675 | 2.32 | 2.16 | 1.06 | 1.23 | 0.734 | 0.671 | 1.19 | 1.93 | 0.86 | 1.63
8 | 0.856 | 0.719 | 0.505 | ATQDDYVLEVR [PTPRZ1_Y2179] | 1.45 | 0.632 | 0.62 | 0.552 | 0.701 | 0.497 | 1.23 | 0.626 | 0.56 | 1.08 | 0.492 | 0.766 | 0.601
9 | 0.751 | 0.527 | 0.477 | ADARMCGVLPW [PLP1_Y207_Y207C] | 0.93 | 0.606 | 0.524 | 0.489 | 0.671 | 0.44 | 1 | 0.436 | 0.488 | 1.1 | 0.436 | 0.746 | 0.487
10 | 1.26 | 0.82 | 0.728 | AQRKLYRNVML [ZNF569_Y33] | 0.566 | 0.412 | 0.287 | 0.4 | 0.372 | 0.373 | 0.583 | 0.41 | 0.481 | 0.629 | 0.47 | 0.482 | 0.535
11 | 0.974 | 1.04 | 12.2 | LNEVGYDDIGG [VCP_Y203] | 1.42 | 1.4 | 1.04 | 1.07 | 1.72 | 0.861 | 2.47 | 1.15 | 1.36 | 1.9 | 0.827 | 1.09 | 0.812

The next lines start with the sequence.

Row | Sequence | SH2 binding enrichment [14] | SH2 binding enrichment [15] | SH2 binding enrichment [16] | phosphorylation enrichment [1] | phosphorylation enrichment [2] | phosphorylation enrichment [3] | phosphorylation enrichment [4] | phosphorylation enrichment [5] | phosphorylation enrichment [6] | phosphorylation enrichment [7] | phosphorylation enrichment [8] | phosphorylation enrichment [9] | phosphorylation enrichment [10] | phosphorylation enrichment [11] | phosphorylation enrichment [12] | phosphorylation enrichment [13]
12 | KSPDSYQKILF [ATM_Y1415_L1420F] | 1.26 | 1.75 | 1.96 | 0.567 | 0.468 | 0.464 | 0.509 | 0.427 | 0.338 | 0.517 | 0.484 | 0.406 | 0.6 | 0.585 | 0.511 | 0.632
13 | YTFNSYYMHWV [IGHV1-46_Y51_T49N] | 1.12 | 0.951 | 0.839 | 1.77 | 4.7 | 4.46 | 6.62 | 5.38 | 5.35 | 1.6 | 1.54 | 2.52 | 6.39 | 6.9 | 1.1 | 2.06
14 | GLGGGCGGASG [KRT8_Y54_Y54C] | 0.944 | 0.712 | 0.525 | 0.582 | 0.465 | 0.499 | 0.494 | 0.544 | 0.449 | 0.817 | 0.433 | 0.505 | 0.508 | 0.384 | 0.444 | 0.404
15 | RKLASYQSCLL [DHX37_Y1080_R1081Q] | 0.784 | 0.646 | 0.517 | 1.01 | 0.592 | 0.799 | 1.19 | 1.22 | 0.555 | 1.11 | 0.901 | 0.665 | 2.02 | 0.539 | 0.872 | 0.463
16 | LADKPYTFEYY [FXN_Y118_D122Y] | 1.19 | 0.899 | 1.28 | 1 | 0.782 | 0.719 | 1.08 | 0.969 | 0.833 | 1.08 | 1.77 | 0.707 | 1.25 | 0.52 | 0.802 | 2.68
17 | RLLRGYDQSAF [HLA-C_Y137_YF] | 1.26 | 0.953 | 0.758 | 0.669 | 0.422 | 0.526 | 0.412 | 0.712 | 0.502 | 0.592 | 0.416 | 0.439 | 0.628 | 0.443 | 0.708 | 0.459
18 | LLTALYFISWG [KCNH2_Y780_R784W] | 1.01 | 0.891 | 0.666 | 1.51 | 1.04 | 0.786 | 0.847 | 1.23 | 0.782 | 1.58 | 1.59 | 2.03 | 1.95 | 3.92 | 1.09 | 2.27
19 | ERLWDCGMSSS [F8_Y1728_Y1728C] | 1.15 | 0.9 | 0.634 | 0.803 | 0.535 | 0.52 | 0.553 | 0.537 | 0.371 | 0.771 | 0.517 | 0.451 | 0.74 | 0.387 | 0.49 | 0.388
20 | VAVTKYCKEEL [ATP7B_Y1078] | 0.813 | 0.729 | 0.53 | 0.877 | 0.508 | 0.547 | 0.498 | 0.776 | 0.494 | 0.917 | 0.455 | 0.593 | 0.844 | 0.37 | 0.651 | 0.477
21 | KTVQDYLKKFY [MMP8_Y36_E38K] | 1 | 0.606 | 0.438 | 0.571 | 0.396 | 0.398 | 0.428 | 0.382 | 0.325 | 0.687 | 0.366 | 0.438 | 0.517 | 0.454 | 1.42 | 0.421
22 | RKETFYTLSCR [GUCY2C_Y681] | 0.996 | 0.821 | 0.749 | 1.32 | 1.17 | 1.27 | 1.49 | 1.39 | 1 | 2.07 | 2.44 | 1.03 | 1.03 | 6.83 | 1.29 | 2.02
23 | SLDLSYYHTSS [EMD_Y181_P183H] | 0.746 | 0.692 | 0.867 | 1.05 | 0.765 | 0.58 | 1.53 | 1.19 | 0.453 | 0.951 | 0.543 | 0.554 | 1.71 | 0.578 | 0.603 | 0.524
24 | ARDVIYIIIPA [FRKtide_2014] | 1.82 | 2.09 | 1.44 | 1.31 | 2.48 | 0.986 | 2.92 | 2 | 0.559 | 1.36 | 0.873 | 1.23 | 1.42 | 2.21 | 1.17 | 1.52
25 | VAMDDYLKNVV [LRRK2_Y707_M712V] | 0.828 | 0.648 | 0.573 | 0.872 | 0.482 | 0.59 | 0.468 | 0.666 | 0.405 | 0.919 | 0.364 | 0.477 | 0.708 | 0.393 | 0.518 | 0.376
26 | QRPGPYDRPGA [HNRNPH2_Y210] | 0.972 | 1.03 | 1.05 | 0.556 | 0.453 | 0.466 | 0.43 | 0.48 | 0.281 | 0.812 | 0.322 | 0.705 | 0.439 | 0.426 | 0.496 | 0.386
27 | SLNEGYAKDFD [FBP1_Y216_R218K] | 0.788 | 0.84 | 0.598 | 1.02 | 0.508 | 0.6 | 0.566 | 0.716 | 0.511 | 0.937 | 0.534 | 0.525 | 0.71 | 0.437 | 0.589 | 0.371
28 | RSAGKYDVFLI [MECP2_Y120_YF] | 1.03 | 0.677 | 0.914 | 0.558 | 0.697 | 0.563 | 0.352 | 0.748 | 0.618 | 0.758 | 0.556 | 0.714 | 0.775 | 0.561 | 0.85 | 0.533
29 | MSRNLYSGDYY [DDR2_Y736] | 0.878 | 0.612 | 0.845 | 2.08 | 11.3 | 14.6 | 7.13 | 5.43 | 2.13 | 0.788 | 5.12 | 5.53 | 1.64 | 9.32 | 0.821 | 5.09
30 | DPLLTYRFPPK [LMNA_Y481] | 0.921 | 0.911 | 0.542 | 0.597 | 0.422 | 0.349 | 0.452 | 0.446 | 0.292 | 0.513 | 0.502 | 0.43 | 0.515 | 0.434 | 0.578 | 0.635
31 | AESPEYVHMYT [FAM111A_Y511] | 0.768 | 0.586 | 0.693 | 1.34 | 0.486 | 0.491 | 1.92 | 1.26 | 0.467 | 1.01 | 0.423 | 0.469 | 0.962 | 0.413 | 0.825 | 0.531
32 | ELANYYKLHHI [AK7_Y391] | 0.705 | 0.941 | 0.474 | 0.647 | 13.7 | 12.3 | 6.91 | 4.77 | 0.629 | 0.591 | 0.566 | 0.743 | 6.75 | 3.36 | 0.565 | 0.762
33 | KAIMIYVSSFY [ACTN4_Y260_T259I] | 0.816 | 0.845 | 0.476 | 0.963 | 0.47 | 0.52 | 0.464 | 0.701 | 0.422 | 1.08 | 0.368 | 0.416 | 1.03 | 0.347 | 0.972 | 0.465
